Consider 25 molecules from US20250163140A1 (Kyowa Kirin, published 2025).

For experiment [1], the target named is T1, Recombinant Human FGF-23 (R&D Systems, Cat No. 2604-FG-025/CF) (human, UniProt Q9GZV9 25-251).
T1 sequence (looked up): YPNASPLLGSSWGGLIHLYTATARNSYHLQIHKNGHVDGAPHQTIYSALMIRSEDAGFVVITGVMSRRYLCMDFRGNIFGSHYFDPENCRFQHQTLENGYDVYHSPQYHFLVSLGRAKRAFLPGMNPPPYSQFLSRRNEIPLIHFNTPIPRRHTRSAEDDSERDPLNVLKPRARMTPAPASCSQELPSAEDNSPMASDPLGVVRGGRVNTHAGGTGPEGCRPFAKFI
The experiment is described as follows: cell-based or functional assay.

The target in experiment [2] is T1, Recombinant Human FGF-23 (R&D Systems, …). The experiment is described as follows: SPR, antibody captured on Protein A chip, FGF-23 analyte.
Experiment [3] has as its target T2, human FcRn (human FcRn-His tag with human β2 microglobulin) (human, UniProt P55899 24-297; P61769 21-119).
T2 construct: also called h FcRn; hFcRn
The experiment is described as follows: SPR pH 6, FcRn-His captured by anti-His, antibody analyte.

Experiment [4] concerns the target T3, monkey FcRn (monkey FcRn-His tag with monkey β2 microglobulin) (cynomolgus monkey, UniProt Q8SPV9 24-297; Q8SPW0 21-119).
T3 construct: also called cyno FcRn; cynomolgus monkey FcRn extracellular domain His-tag body
The description is as above.

The target in experiment [5] is T1, Recombinant Human FGF-23 (R&D Systems, …). Description: cell-based or functional assay. This is another data set of the same source.
For experiment [6] the target is unchanged. Description: SPR, antibody captured by anti-human IgG, FGF-23 analyte. A general note: In SPR one partner is held on a chip, and binding of the other changes the refractive index at the surface.

Residue numbers refer to the chain shown, from its start. Numbers in names are those of the source. Read-outs that look alike come from different tables or passages of the source.

T3 sequence (Q8SPV9 other isoform, or with tags, fused parts or gaps limits assumed, chain 1 of 2): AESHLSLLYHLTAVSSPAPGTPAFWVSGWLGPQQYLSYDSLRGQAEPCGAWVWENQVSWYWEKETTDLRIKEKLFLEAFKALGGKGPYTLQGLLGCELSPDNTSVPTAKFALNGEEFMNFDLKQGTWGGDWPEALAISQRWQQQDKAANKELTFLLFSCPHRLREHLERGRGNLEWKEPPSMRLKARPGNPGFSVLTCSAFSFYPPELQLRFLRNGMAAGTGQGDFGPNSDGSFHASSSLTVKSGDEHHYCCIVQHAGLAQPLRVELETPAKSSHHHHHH
T3 sequence (Q8SPW0 21-119 limits assumed, chain 2 of 2): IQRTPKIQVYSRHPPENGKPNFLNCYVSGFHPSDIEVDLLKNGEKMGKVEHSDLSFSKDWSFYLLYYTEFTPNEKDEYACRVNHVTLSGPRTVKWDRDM
T2 sequence (P55899 other isoform, or with tags, fused parts or gaps limits assumed, chain 1 of 2): as the sequence (Q8SPV9 other isoform, or with tags, fused parts or gaps limits assumed, chain 1 of 2) above, with D39N, Q44E, S99G, G189S, N190S, M217L, T269S counted along it
T2 sequence (P61769 21-119 limits assumed, chain 2 of 2): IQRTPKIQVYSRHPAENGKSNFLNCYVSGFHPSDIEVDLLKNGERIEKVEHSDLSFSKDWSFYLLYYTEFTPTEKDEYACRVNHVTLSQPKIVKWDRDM

B1: antibody A-1 (antibody, V domains shown)
VH: QVQLVQSGAEVKKPGASVKVSCKASGYTFTNHYMHWVRQAPGQGLEWMGLINPWHGTFSNAQKFQGRVTMTRDTSTSTVYMELSSLRSEDTAVYYCARDAVDAFDFWGQGTMVTVSS
VL: AIQLTQSPSSLSASVGDRVTITCRASQGISSALVWYQQKPGKAPKLLIYDASSLESGVPSRFSGSGSGTDFTLTISSLQPEDFATYYCQQFNDYFTFGPGTKVDIK
notes: VH J2H2B9_A; not shown: human kappa chain constant region
On to B1, for which, in experiment [1], the “FGF23 neutralizing activity IC50 (luciferase promoter assay)” value (shortened to “FGF23 neutralizing activity IC50”) came out at 3.5 ng/mL. The Kd – broadly, the free concentration of one partner at which half of the binding sites on the other are occupied at equilibrium, for simple one-to-one binding – in experiment [2] is 0.00822 nM.

B2: antibody A_IgG4PE_R409K (antibody)
heavy: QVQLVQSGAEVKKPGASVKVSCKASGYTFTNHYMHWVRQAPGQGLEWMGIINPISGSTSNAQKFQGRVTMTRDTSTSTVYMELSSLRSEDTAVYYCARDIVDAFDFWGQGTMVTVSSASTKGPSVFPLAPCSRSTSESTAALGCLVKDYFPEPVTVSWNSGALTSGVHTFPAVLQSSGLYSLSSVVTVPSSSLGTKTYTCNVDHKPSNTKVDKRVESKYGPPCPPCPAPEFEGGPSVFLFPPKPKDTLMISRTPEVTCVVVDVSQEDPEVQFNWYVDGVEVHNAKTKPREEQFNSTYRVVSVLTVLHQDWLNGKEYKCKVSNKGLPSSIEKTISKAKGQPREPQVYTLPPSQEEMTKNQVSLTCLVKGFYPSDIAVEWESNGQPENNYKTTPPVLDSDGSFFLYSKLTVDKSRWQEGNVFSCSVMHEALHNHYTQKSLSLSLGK
VL: B1 VL
notes: copies: 2 + 2
On to B2, for which the figures for the Kd in experiment [3] and in experiment [4] were 912 nM and 324 nM, respectively.

B3: antibody A_G2 (antibody, human IgG2)
heavy: QVQLVQSGAEVKKPGASVKVSCKASGYTFTNHYMHWVRQAPGQGLEWMGIINPISGSTSNAQKFQGRVTMTRDTSTSTVYMELSSLRSEDTAVYYCARDIVDAFDFWGQGTMVTVSSASTKGPSVFPLAPCSRSTSESTAALGCLVKDYFPEPVTVSWNSGALTSGVHTFPAVLQSSGLYSLSSVVTVPSSNFGTQTYTCNVDHKPSNTKVDKTVERKCCVECPPCPAPPVAGPSVFLFPPKPKDTLMISRTPEVTCVVVDVSHEDPEVQFNWYVDGVEVHNAKTKPREEQFNSTFRVVSVLTVVHQDWLNGKEYKCKVSNKGLPAPIEKTISKTKGQPREPQVYTLPPSREEMTKNQVSLTCLVKGFYPSDIAVEWESNGQPENNYKTTPPMLDSDGSFFLYSKLTVDKSRWQQGNVFSCSVMHEALHNHYTQKSLSLSPGK
light: B1 VL
notes: domain: CH; CH of antibody A replaced by a CH of human IgG2; also called A2_G2; not shown: human kappa chain constant region; copies: 2 + 2
For the molecule B3, the Kd was found to be 624 nM in experiment [3] and 233 nM in experiment [4].

B4: antibody A_G2_YTE (antibody)
heavy: B3 heavy with M248Y, S250T, T252E
light: B1 VL
notes: not shown: human kappa chain constant region; copies: 2 + 2
On to B4, for which the results for the Kd in experiment [3] and in experiment [4] were 186 nM and 39.1 nM, respectively.

B5: antibody A-4 (antibody, V domains shown)
VH: B1 VH with L50I, W54I, H55S, T57S, F58T, A100Y
VL: B1 VL with F91M, N92Y, Y94D, T96N
notes: VL L3G12; not shown: human kappa chain constant region
Turning to B5, in experiment [1], the “FGF23 neutralizing activity IC50” value stood at 1.9 ng/mL. In addition, the Kd in experiment [2] amounted to 0.00874 nM.

B6: antibody I100R (antibody, human IgG1, V domains shown)
VH: B1 VH with L50I, W54I, H55S, T57S, F58T, A100R
VL: B1 VL
notes: also called modified antibody I100
Regarding B6, in experiment [5], the “FGF23 neutralizing activity IC50” value was 82.5 ng/mL. Besides, the Kd in experiment [6] amounted to 0.222 nM.

B7: antibody A_YTE (antibody, IgG1)
heavy: QVQLVQSGAEVKKPGASVKVSCKASGYTFTNHYMHWVRQAPGQGLEWMGIINPISGSTSNAQKFQGRVTMTRDTSTSTVYMELSSLRSEDTAVYYCARDIVDAFDFWGQGTMVTVSSASTKGPSVFPLAPSSKSTSGGTAALGCLVKDYFPEPVTVSWNSGALTSGVHTFPAVLQSSGLYSLSSVVTVPSSSLGTQTYICNVNHKPSNTKVDKKVEPKSCDKTHTCPPCPAPELLGGPSVFLFPPKPKDTLYITREPEVTCVVVDVSHEDPEVKFNWYVDGVEVHNAKTKPREEQYNSTYRVVSVLTVLHQDWLNGKEYKCKVSNKALPAPIEKTISKAKGQPREPQVYTLPPSRDELTKNQVSLTCLVKGFYPSDIAVEWESNGQPENNYKTTPPVLDSDGSFFLYSKLTVDKSRWQQGNVFSCSVMHEALHNHYTQKSLSLSPGK
light: B1 VL
notes: IgG1 CH with M252Y/S254T/T256E (EU index); not shown: human kappa chain constant region; copies: 2 + 2
Turning to B7, the Kd in experiment [3] worked out at 159 nM; in experiment [4], 115 nM.

B8: antibody I100D (antibody, human IgG1, V domains shown)
VH: B1 VH with L50I, W54I, H55S, T57S, F58T, A100D
VL: B1 VL
notes: as for B6
Consider B8, for which, in experiment [5], the “FGF23 neutralizing activity IC50” value was more than 100 ng/mL. Also, the Kd in experiment [6] came out at 0.219 nM.

B9: antibody A_IgG4PE_R409K_YTE (antibody)
heavy: QVQLVQSGAEVKKPGASVKVSCKASGYTFTNHYMHWVRQAPGQGLEWMGIINPISGSTSNAQKFQGRVTMTRDTSTSTVYMELSSLRSEDTAVYYCARDIVDAFDFWGQGTMVTVSSASTKGPSVFPLAPCSRSTSESTAALGCLVKDYFPEPVTVSWNSGALTSGVHTFPAVLQSSGLYSLSSVVTVPSSSLGTKTYTCNVDHKPSNTKVDKRVESKYGPPCPPCPAPEFEGGPSVFLFPPKPKDTLYITREPEVTCVVVDVSQEDPEVQFNWYVDGVEVHNAKTKPREEQFNSTYRVVSVLTVLHQDWLNGKEYKCKVSNKGLPSSIEKTISKAKGQPREPQVYTLPPSQEEMTKNQVSLTCLVKGFYPSDIAVEWESNGQPENNYKTTPPVLDSDGSFFLYSKLTVDKSRWQEGNVFSCSVMHEALHNHYTQKSLSLSLGK
VL: B1 VL
notes: copies: 2 + 2
Take B9: the Kd was determined as 227 nM in experiment [3] and 123 nM in experiment [4].

B10: antibody I100H (antibody, human IgG1, V domains shown)
VH: B1 VH with L50I, W54I, H55S, T57S, F58T, A100H
VL: B1 VL
notes: as for B6
As to B10, the “FGF23 neutralizing activity IC50” value in experiment [5] was determined as 8.9 ng/mL. Also, the Kd in experiment [6] was 0.0672 nM.

B11: antibody I100G (antibody, human IgG1, V domains shown)
VH: B1 VH with L50I, W54I, H55S, T57S, F58T, A100G
VL: B1 VL
notes: as for B6
On to B11, for which, in experiment [5], the “FGF23 neutralizing activity IC50” value was more than 100 ng/mL. The Kd in experiment [6] is 0.149 nM.

B12: antibody A-7 (antibody, V domains shown)
VH: B1 VH with L50I, W54I, H55S, T57S, F58T
VL: B1 VL with F91L, N92Y, Y94D, T96D
notes: VL 2L3H7; not shown: human kappa chain constant region
For the molecule B12, the “FGF23 neutralizing activity IC50” value in experiment [1] was determined as 3.2 ng/mL. The dissociation constant (Kd) in experiment [2] came to 0.0161 nM.

B13: antibody A_G2_A (antibody, human IgG2, name in EU numbering)
heavy: B3 heavy with A374S, N430A
light: B1 VL
notes: domain: CH; Human IgG2 CH with modification (10-3), EU index; not shown: human kappa chain constant region; copies: 2 + 2
For the molecule B13, the Kd in experiment [3] was 286 nM; in experiment [4], 133 nM.

B14: antibody A-8 (antibody, V domains shown)
VH: B1 VH with L50I, W54I, H55S, T57S, F58T, A100Y
VL: B1 VL with F91L, N92Y, Y94D, T96D
notes: as for B12
As to B14, in experiment [1], the “FGF23 neutralizing activity IC50” value turned out to be 2.4 ng/mL. Further, the Kd in experiment [2] came to 0.0067 nM.

B15: antibody A-3 (antibody, V domains shown)
VH: B1 VH with L50I, W54I, H55S, T57S, F58T
VL: B1 VL with F91M, N92Y, Y94D, T96N
notes: as for B5
In the case of B15, in experiment [1], the “FGF23 neutralizing activity IC50” value is 2.7 ng/mL. In experiment [2], the Kd was 0.00827 nM.

B16: antibody I100Y (antibody, human IgG1, V domains shown)
VH: B1 VH with L50I, W54I, H55S, T57S, F58T, A100Y
VL: B1 VL
notes: as for B6
B16: in experiment [5], the “FGF23 neutralizing activity IC50” value came to 3 ng/mL. In addition, the Kd in experiment [6] was 0.0186 nM.

B17: antibody A-2 (antibody, V domains shown)
VH: B1 VH with A100Y
VL: B1 VL
notes: VH J2H2B9_Y; not shown: human kappa chain constant region
Take B17: the “FGF23 neutralizing activity IC50” value in experiment [1] is 3.4 ng/mL. Moreover, in experiment [2], the Kd was determined as 0.00808 nM.

B18: antibody A-5 (antibody, V domains shown)
VH: B1 VH with L50I, W54I, H55S, T57S, F58T
VL: B1 VL with G28D, I29V, S31T, V34L
notes: VL L1H8; not shown: human kappa chain constant region
As to B18, the “FGF23 neutralizing activity IC50” value in experiment [1] came to 1.9 ng/mL. Also, in experiment [2], the Kd was 0.00361 nM.

B19: antibody A_IgG4PE_R409K_P (antibody)
heavy: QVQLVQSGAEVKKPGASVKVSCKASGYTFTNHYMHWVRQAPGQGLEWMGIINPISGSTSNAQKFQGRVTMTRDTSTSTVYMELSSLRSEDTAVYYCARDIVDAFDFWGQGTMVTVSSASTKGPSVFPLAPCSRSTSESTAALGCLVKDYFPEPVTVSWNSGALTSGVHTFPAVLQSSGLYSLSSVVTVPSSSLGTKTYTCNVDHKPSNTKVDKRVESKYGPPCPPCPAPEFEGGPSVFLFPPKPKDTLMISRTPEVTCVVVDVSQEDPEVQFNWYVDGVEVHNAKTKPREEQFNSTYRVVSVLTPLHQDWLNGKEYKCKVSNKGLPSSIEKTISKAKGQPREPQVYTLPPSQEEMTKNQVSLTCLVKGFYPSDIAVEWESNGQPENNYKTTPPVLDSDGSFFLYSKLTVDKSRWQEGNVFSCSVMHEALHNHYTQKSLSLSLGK
light: B1 VL
notes: as for B4
Regarding B19, the Kd is 192 nM in experiment [3] and 76.9 nM in experiment [4].

B20: antibody A_G2_P (antibody, human IgG2, name in EU numbering)
heavy: B3 heavy with V304P, A374S
light: B1 VL
notes: domain: CH; Human IgG2 CH with modification (10-4), EU index; not shown: human kappa chain constant region; copies: 2 + 2
As to B20, the Kd amounted to 234 nM in experiment [3] and 78.2 nM in experiment [4].

B21: antibody A-6 (antibody, V domains shown)
VH: B1 VH with L50I, W54I, H55S, T57S, F58T, A100Y
VL: B1 VL with G28D, I29V, S31T, V34L
notes: as for B18
Regarding B21, the “FGF23 neutralizing activity IC50” value in experiment [1] came to 3.6 ng/mL. The Kd in experiment [2] was found to be 0.0113 nM.

B22: antibody I100N (antibody, human IgG1, V domains shown)
VH: B1 VH with L50I, W54I, H55S, T57S, F58T, A100N
VL: B1 VL
notes: as for B6
For the molecule B22, the “FGF23 neutralizing activity IC50” value in experiment [5] amounted to 26.2 ng/mL. The dissociation constant (Kd) in experiment [6] is 0.0934 nM.

B23: antibody A_IgG4PE_R409K_QL (antibody)
chain 1: B9 heavy with T247Q, Y249M, T251S, E253T, M425L
chain 2: not shown
For the molecule B23, the Kd stood at 265 nM in experiment [3] and 87 nM in experiment [4].

B24: antibody A_G2AAAS_A (antibody)
chain 1: B3 heavy with V231A, G233A, P327S, A374S, N430A
chain 2: not shown
As for B24, the results for the Kd in experiment [3] and in experiment [4] were 247 nM and 129 nM, respectively.

B25: antibody A_G2AAAS_QL (antibody)
chain 1: B3 heavy with V231A, G233A, T246Q, P327S, A374S, M424L
chain 2: not shown
On to B25, for which the figures for the Kd in experiment [3] and in experiment [4] were 213 nM and 69 nM, respectively.
